± gives the standard deviation of the averaged measurements.
System: Saccharomyces cerevisiae
Test: protein stability index of tFT-peptide fusion (C-terminal peptide) (PSI (0-1 scale)); higher = more stable (slower turnover)
Conditions: genetic background: wild type; temperature: 30 C
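Also: PSI is a weighted mean of sequencing reads over stability bins, variants kept only with over 10 reads, mCherry proximal and sfGFP distal, peptide attached via GGGS linker.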

Sequence	protein stability index
QKCNPGKRVDRT	0.692 ± 0.0091
LGRPRRGGGVSG	0.6998 ± 0.0012
CGRGVWAVVGVP	0.715 ± 0.028
CLPRFLGLGGRV	0.68 ± 0.072
SPPPLPPVRPPV	0.722 ± 0.033
SVTSKDEYDLEE	0.694 ± 0.043
TGLYWGQIPYSQ	0.687 ± 0.062
GGELVKGWGSRV	0.678 ± 0.072
SHLSTLSHPPPP	0.637 ± 0.043
TGGRRKNCIIKK	0.688 ± 0.062
VGVCLVSLGSWL	0.605 ± 0.013
LLPSAAPPPQFL	0.686 ± 0.035
ITNKKKIKDKQT	0.593 ± 0.033
WLWLGFNRVFFY	0.511 ± 0.033
SSGVIIGRIAVK	0.603 ± 0.033
VFRPFVLPLMFP	0.611 ± 0.053
CVPYLGEFTRNG	0.691 ± 0.038
GVDPVGVLFCGA	0.656 ± 0.074
GRRRTFGRSRGG	0.651 ± 0.029
RNQTRKTTQKPR	0.661 ± 0.01
VLRRRPNDMRKF	0.6939 ± 0.0062
LGSRSGPLFPCV	0.655 ± 0.015
WDSPVMCVTIID	0.628 ± 0.0094
SCYGPRAPFHSP	0.581 ± 0.074
MAINAGYYKWRH	0.767 ± 0.053
KGRSKHIKGKRR	0.743 ± 0.033

Sequence	protein stability index
SGGVKGKKKGEK	0.702 ± 0.043
ADWGSRRPSRCP	0.68915 ± 0.00051
AYRISCAGHIMA	0.684 ± 0.053
GGGGLKVVGGGS	0.661 ± 0.032
VKTGIKQSLTEP	0.6982 ± 0.0037
RSVVLPSFLSPH	0.699 ± 0.017
SPCPLTVAPIIP	0.644 ± 0.056
VLQSLRSLRRLG	0.549 ± 0.071
GAGGAGAGAGGG	0.639 ± 0.0092
PSDGCSPSSTGN	0.696 ± 0.076
SRGAFGPCEFFL	0.712 ± 0.0076
LPQTVPPPPSPP	0.624 ± 0.06
GVLGRVRLGWVG	0.671 ± 0.012
TLRKTTRHRRNA	0.737 ± 0.069
PSHPPRHCPPAA	0.6628 ± 0.0024
VYRMYTLKRVKR	0.686 ± 0.062
PRIKWKIQIIKK	0.668 ± 0.011
YINRKKKKINKT	0.675 ± 0.066
VIEWFVRGRVGG	0.7032 ± 0.00085
CCLSCGRPTLGS	0.731 ± 0.067
ASHDIFWAGSRE	0.766 ± 0.092
AIANIIERFTLL	0.63 ± 0.066
VGGGGAVDGRSG	0.7298 ± 0.0025
KLLRPMVLPQRT	0.615 ± 0.02
QTIRNLEVPLTG	0.751 ± 0.017
SASSLPVVAARA	0.544 ± 0.021

Sequence	protein stability index
ILHCVCFGLFHF	0.614 ± 0.014
SFQCTCLSPCTG	0.652 ± 0.07
GGGRGEVEGHSG	0.709 ± 0.013
LRSMSPPPHSLA	0.688 ± 0.058
VWTPWSTKDCLG	0.721 ± 0.054
GVFWGYGLRDGV	0.731 ± 0.073
CRGILVGVWRCG	0.5856 ± 0.0014
PQLLGWCVGPCR	0.694 ± 0.024
ARSFALLGCRRS	0.677 ± 0.042
GCCAPWTFDDDL	0.7117 ± 0.0065
GSGGGVRRTIML	0.739 ± 0.022
NCAPVPLSPADS	0.685 ± 0.032
PRFSLFSTDHYY	0.679 ± 0.16
EKKKKKKKKKKK	0.7721 ± 0.003
DVVLVSPCGQMW	0.725 ± 0.21
RGSQRVVVSLGW	0.726 ± 0.0073
ALSRRPAAGDGP	0.641 ± 0.024
CMFATFLFVPPL	0.591 ± 0.014
LSLSVNLPLFPT	0.648 ± 0.067
RNTIKMKENKRI	0.643 ± 0.042
LRVRTLGLPLVY	0.569 ± 0.026
PPPPPPPPPSPP	0.704 ± 0.0066
SRHVAGVGGGEV	0.652 ± 0.019
INTVGRCCGLVE	0.681 ± 0.043
VQSVIEPSIRYA	0.648 ± 0.014
SPPPMSPLLRPA	0.653 ± 0.033

Sequence	protein stability index
AGSYERFSRGHR	0.688 ± 0.034
PFVPPPHRDDSP	0.746 ± 0.082
GCGLVGGRWFRW	0.67 ± 0.034
THSLRIRESNNT	0.674 ± 0.014
PSPSPPPCPYPP	0.677 ± 0.054
GGGHGGVGGGMG	0.612 ± 0.057
PSPSPLPASFRL	0.683 ± 0.11
RGVREVGSAELV	0.731 ± 0.022
RQFRVVGCVCQP	0.686 ± 0.037
ESVPPILGQDPL	0.773 ± 0.035
GIVFGMRKSDFK	0.764 ± 0.1
LFLCSGWVACWW	0.498 ± 0.013
LLSSFIFSILFF	0.496 ± 0.0085
PPELHTIRARQI	0.58 ± 0.082
SRTDGLIYTALI	0.676 ± 0.021
GSCFLLSLVSFI	0.56199 ± 0.00047
SREEWQSSKLRD	0.784 ± 0.089
ASGLVVDYTLIA	0.671 ± 0.025
PPPPTRSRRNLP	0.705 ± 0.047
PAVIVAPYSQGE	0.701 ± 0.025
VGFSVLGGRAGW	0.712 ± 0.044
GDERGAGRVGGS	0.626 ± 0.0064
LQCAVPPRDLTS	0.645 ± 0.074
DGGALGVKGCDR	0.694 ± 0.054
PPRAHQSCPCRR	0.719 ± 0.055
GPTFPPGLPSSL	0.695 ± 0.09

Sequence	protein stability index
NLITKWTCMRLF	0.511 ± 0.014
GLLCWVGRWGVF	0.596 ± 0.05
RAKGILPESEQI	0.72 ± 0.035
TYPSWIYELNKT	0.753 ± 0.077
LMLFCLGCDMSV	0.576 ± 0.027
PPALSSNPVIPG	0.626 ± 0.099
VVWGGWGGWGCW	0.81 ± 0.17
FRRWHPPFFLFP	0.713 ± 0.04
FSGSSFNGLCSF	0.701 ± 0.018
PRSRSHPLCSAP	0.813 ± 0.062
RDPPLLQPTTSS	0.648 ± 0.018
GGLVPPLEGLVR	0.677 ± 0.037
PRRFPCRLRLGF	0.702 ± 0.074
KTVVYDDRKQLR	0.674 ± 0.0096
LPPLPPSPPSPR	0.697 ± 0.029
CIVSARCWRSPY	0.609 ± 0.0072
FFFPGLLVPLFP	0.727 ± 0.025
ISGTDGVRHFLG	0.662 ± 0.018
SSPAGSRLPFGS	0.75 ± 0.11
EGLSYSFGDCPM	0.754 ± 0.03
GGSGGLGEQGHR	0.76 ± 0.051
IKKKKNKKENAE	0.725 ± 0.092
GQVSVGAVGSFE	0.642 ± 0.097
ARCSDPSAATHT	0.706 ± 0.038
AVFGLEAVMRRG	0.753 ± 0.15
NSPKTKKTNFKE	0.665 ± 0.017

Sequence	protein stability index
GSRIGTVSIRRI	0.691 ± 0.072
LLHCPSRGFLFS	0.851 ± 0.17
AHQRSRRPKPSR	0.65 ± 0.072
HCSLRPRPNHAR	0.746 ± 0.032
RLPVRSGAMHGC	0.665 ± 0.011
LTLLFLHPFPST	0.753 ± 0.1
GGDDKREPGGAR	0.6603 ± 0.0025
LRDIEEIHRRGA	0.782 ± 0.013
PPPPPLPLCRRP	0.756 ± 0.06
RLTLTAKDNEGC	0.733 ± 0.1
PPPPPLPLPPPF	0.697 ± 0.023
KRDNKNKDKQKK	0.7 ± 0.024
RLFSPLRPLSPP	0.668 ± 0.032
HRCLSRTVSPPS	0.671 ± 0.04
VGGGLGGGVVLV	0.6993 ± 0.0011
LSFAVFIDFFTA	0.5223 ± 0.003
PLSPPPPPPLPA	0.71 ± 0.011
GGVCRARVAETV	0.674 ± 0.0074
VRRHPQYPLLRV	0.541 ± 0.0099
AARRPARACGGQ	0.632 ± 0.025
GGGVPGGLGREG	0.677 ± 0.043
SPPSRASFPPPS	0.682 ± 0.022
SSIEAGFSSIVI	0.685 ± 0.04
SPPPAPPRSGPL	0.651 ± 0.051
PPLSPPPPPPVP	0.688 ± 0.066
RSSECNQLYTHK	0.682 ± 0.065

Sequence	protein stability index
DPISNVDVTKIR	0.6571 ± 0.0044
PLRSPSYPPPPP	0.6814 ± 0.00091
LWLCLERFPCSR	0.74 ± 0.042
DWTNLTVITGDT	0.674 ± 0.035
VSQLGTYICSYL	0.687 ± 0.053
PAPLPPPAPSST	0.69 ± 0.02
WGGRSVGGVVWR	0.714 ± 0.036
LPPPHPPTPAPP	0.621 ± 0.075
RKGSVVILGLGL	0.65248 ± 0.0003
HPPLPPPPIVPS	0.696 ± 0.067
CLDRRCTSRGCI	0.717 ± 0.03
SLSVPTTLFLFS	0.7 ± 0.017
PPPPRPPPQSPS	0.724 ± 0.021
AFLVGDVFGRLL	0.602 ± 0.016
SPRLPPSTHSPP	0.677 ± 0.15
QCLSIDARNGVT	0.668 ± 0.095
SARPDLAERHRP	0.673 ± 0.013
NKKKKHKNSKNN	0.704 ± 0.055
FTLLLFVPSLGS	0.618 ± 0.0082
TPNLQPLPRNLD	0.765 ± 0.037
GWGGGAAQKCGQ	0.7 ± 0.039
WAIYPDVESVIP	0.773 ± 0.0081
PPPPSTRPSYSP	0.756 ± 0.23
LVHPPPPLLPPA	0.6 ± 0.018
PTLPPPPRPPAP	0.657 ± 0.016
VPWVFVYGEGVR	0.734 ± 0.024

Sequence	protein stability index
CPIASSRHSVGL	0.823 ± 0.12
RCHAFGEWLRGW	0.733 ± 0.003
LLSHPDLPPIPP	0.503 ± 0.086
PLPPLPPPPPAA	0.682 ± 0.038
RGKGGKKRRKRD	0.648 ± 0.07
LPSPAFLTPPPL	0.788 ± 0.1
LHKSINPSPHPP	0.6864 ± 0.0066
ASRRMGGHNALS	0.705 ± 0.013
FSLHTSLLPSVP	0.787 ± 0.14
PTSLLPLRLLNS	0.61185 ± 0.00055
SPPPHPPAAPDS	0.6626 ± 0.0058
VSDLGRFVDRRV	0.636 ± 0.029
GSVEGVLWSGVL	0.711 ± 0.031
SCCSLCKAVRNL	0.718 ± 0.054
GCGGSREAVVNG	0.662 ± 0.042
KYPVDHHTPLSS	0.703 ± 0.021
TFRHLRPPLRSR	0.649 ± 0.037
FGSCVVVRRVGF	0.619 ± 0.056
PPLLPPPSPPPP	0.684 ± 0.04
FASIESVENIEM	0.709 ± 0.07

Reference: the supplement of paper PMC10724198
